Measurements reported in patent US20190233528A1 (published 2019).
Where two headings read alike, the source gives them in different places.

T1: human CD70 expressed on parental (WT) Jurkat cells (human, UniProt P32970 1-193)
T1 sequence: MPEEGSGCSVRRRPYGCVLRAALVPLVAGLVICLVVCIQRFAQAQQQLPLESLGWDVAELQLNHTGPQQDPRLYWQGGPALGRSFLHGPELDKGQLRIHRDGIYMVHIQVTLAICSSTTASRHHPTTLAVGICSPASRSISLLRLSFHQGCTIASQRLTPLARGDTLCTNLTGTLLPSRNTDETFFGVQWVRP

T2: recombinant biotinylated human CD70 protein (human, UniProt P32970 39-193, biotinylated (site not stated))
T2 construct: also called recombinant biotinylated hCD70 protein
T2 sequence: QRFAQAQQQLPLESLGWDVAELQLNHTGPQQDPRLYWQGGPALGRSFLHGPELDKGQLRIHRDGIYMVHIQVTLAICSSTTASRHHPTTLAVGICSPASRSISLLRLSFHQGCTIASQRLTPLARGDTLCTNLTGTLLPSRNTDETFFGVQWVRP


Assays:
[1] = biological target: T1, human CD70 expressed on parental (WT) …; experiment: cell-based or functional assay
[2] = biological target: T2, recombinant biotinylated human CD70 …; experiment: flow cytometry: CAR-transduced Jurkat cells incubated with recombinant biotinylated human CD70, streptavidin-PE; percent of cells binding
Experimental: On Day 5, transduced cells were stained with human anti-CD69 antibody conjugated to PE-Cy7 and acquired on a flow cytometer to obtain percentage of CD69+ population for each CAR. […] Activation ratios (WT activation/KO activation) and protein binding were used to rank CARs.
Table 7: Activation ratio and protein binding of phage CARs were determined in the Jurkat screen. Activation ratio was used for in vitro characterization of CARs. Activation ratio was determined by calculating the ratio of the percentage of CD69 expression on WT Jurkat cells transduced with CD70 CAR (WT) to that on CD70 knockout Jurkat cells transduced with CD70 CAR (KO). A higher activation ratio indicates target-dependent activation. […] Protein binding values indicate the percentage of CD3+ CAR T cells that bind to human CD70 protein.

[3] = biological target: T1, human CD70 expressed on parental (WT) …; experiment: cell-based or functional assay; remark: listed apart in the source

Binder | Activation ratio (WT/KO) [1] | Protein binding (%) [2] [%] | Activation ratio (WT/KO) [3]
P12G07 CD70-specific CAR (other, Chimeric antigen receptor on transduced Jurkat cells; the signal peptide is left out) EVQLLESGGGLVQPGGSLRLSCAASGFTFNNFAMSWVRQAPGKGLEWVSGISGSGDNTYYADSVKGRFTISRDNSKNTLYLQMNSLRAEDTAVYYCAKDRDIGLGWYSYYLDVWGQGTLVTVSSGGGGSGGGGSGGGGSGGGGSELQSVLTQPPSASGTPGQRVTISCSGSSSNIGSNYVYWYQQLPGTAPKPLIYMNNQRPSGVPDRFSGSKSGTSASLAISGLRSEDEADYYCAAWDDSLSAVVFGTGTKLTVLTTTPAPRPPTPAPTIASQPLSLRPEACRPAAGGAVHTRGLDFACDIYIWAPLAGTCGVLLLSLVITLYCKRGRKKLLYIFKQPFMRPVQTTQEEDGCSCRFPEEEEGGCELRVKFSRSADAPAYQQGQNQLYNELNLGRREEYDVLDKRRGRDPEMGGKPRRKNPQEGLYNELQKDKMAEAYSEIGMKGERRRGKGHDGLYQGLSTATKDTYDALHMQALPPR | 11.6 | 15.5 | –
P08G02 CD70-specific CAR (other, Chimeric antigen receptor on transduced Jurkat cells; the signal peptide is left out) EVQLVQSGAEVKKPGESLKISCKGSGYTFPSSWIGWVRQMPGKGLEWMGIIYPDTSHTRYSPSFQGQVTISADKSISTAYLQWSSLKASDTAMYYCARASYFDRGTGYSSWWMDVWGQGTLVTVSSGGGGSGGGGSGGGGSGGGGSELDIQMTQSPSSLSASVGDRVTITCRASQSIYDYLHWYQQKPGKAPKLLIYDASNLQSGVPSRFSGSGSGTDFTLTISSLQPEDFATYYCQQSYTTPLFTFGQGTKVEIKTTTPAPRPPTPAPTIASQPLSLRPEACRPAAGGAVHTRGLDFACDIYIWAPLAGTCGVLLLSLVITLYCKRGRKKLLYIFKQPFMRPVQTTQEEDGCSCRFPEEEEGGCELRVKFSRSADAPAYQQGQNQLYNELNLGRREEYDVLDKRRGRDPEMGGKPRRKNPQEGLYNELQKDKMAEAYSEIGMKGERRRGKGHDGLYQGLSTATKDTYDALHMQALPPR | 2.11 | 77.8 | –
P12B09 CD70-specific CAR (other, Chimeric antigen receptor on transduced Jurkat cells; the signal peptide is left out) EVQLLESGGGLVQPGGSLRLSCAASGFTFSQYSMSWVRQAPGKGLEWVSAISGGGVSTYYADSVKGRFTISRDNSKNTLYLQMNSLRAEDTAVYYCASDISDSGGSHWYFDYWGQGTLVTVSSGGGGSGGGGSGGGGSGGGGSELDIQMTQSPSSLSASVGDRVTITCRASQYIGRYLNWYQQKRGKAPKLLIHGATSLASGVPSRFSGSGSGTDFTLTISSLQPEDFATYYCQQSYSTTSPTFGQGTKVEIKTTTPAPRPPTPAPTIASQPLSLRPEACRPAAGGAVHTRGLDFACDIYIWAPLAGTCGVLLLSLVITLYCKRGRKKLLYIFKQPFMRPVQTTQEEDGCSCRFPEEEEGGCELRVKFSRSADAPAYQQGQNQLYNELNLGRREEYDVLDKRRGRDPEMGGKPRRKNPQEGLYNELQKDKMAEAYSEIGMKGERRRGKGHDGLYQGLSTATKDTYDALHMQALPPR | 4.34 | 5.74 | –
P08E02 CD70-specific CAR (other, Chimeric antigen receptor on transduced Jurkat cells; the signal peptide is left out) EVQLVQSGAEVKKPGESLKISCKGSGYSFTSSWIGWVRQMPGKGLEWMGIIYPGDSDTRYSPSFQGQVTISADKSISTAYLQWSSLKASDTAMYYCAKGLSQAMTGFGFDYWGQGTLVTVSSGGGGSGGGGSGGGGSGGGGSELDIQMTQSPSSLSASVGDRVTITCRASQSISRYLNWYQQKPGKAPKLLIYAASILQTGVPSRFSGSGSGTDFTLTISSLQPEDFATYYCQQSYSTTMWTFGQGTKVEIKTTTPAPRPPTPAPTIASQPLSLRPEACRPAAGGAVHTRGLDFACDIYIWAPLAGTCGVLLLSLVITLYCKRGRKKLLYIFKQPFMRPVQTTQEEDGCSCRFPEEEEGGCELRVKFSRSADAPAYQQGQNQLYNELNLGRREEYDVLDKRRGRDPEMGGKPRRKNPQEGLYNELQKDKMAEAYSEIGMKGERRRGKGHDGLYQGLSTATKDTYDALHMQALPPR | 3.29 | 57.1 | –
P12F02 CD70-specific CAR (other, Chimeric antigen receptor on transduced Jurkat cells; the signal peptide is left out) EVQLLESGGGLVQPGGSLRLSCAASGFTFSSYAMSWVRQAPGKGLEWVSTISGTGGTTYYADSVKGRFTISRDNSKNTLYLQMNSLRAEDTAVYYCAKVRAGIDPTASDVWGQGTLVTVSSGGGGSGGGGSGGGGSGGGGSELQSVLTQPPSASGTPGQRVTISCSGSTSNIGRNYVYWYQQLPGTAPKLLIYRTNQRPSGVPDRFSGSKSGTSASLAISGLRSEDEADYYCAAWDDSLSGRVFGTGTKLTVLTTTPAPRPPTPAPTIASQPLSLRPEACRPAAGGAVHTRGLDFACDIYIWAPLAGTCGVLLLSLVITLYCKRGRKKLLYIFKQPFMRPVQTTQEEDGCSCRFPEEEEGGCELRVKFSRSADAPAYQQGQNQLYNELNLGRREEYDVLDKRRGRDPEMGGKPRRKNPQEGLYNELQKDKMAEAYSEIGMKGERRRGKGHDGLYQGLSTATKDTYDALHMQALPPR | 12 | 2.39 | –
P08F08 CD70-specific CAR (other, Chimeric antigen receptor on transduced Jurkat cells; the signal peptide is left out) EVQLVQSGAEVKKPGESLKISCKGSGYGFTSYWIGWVRQMPGKGLEWMGIIHPDDSDTKYSPSFQGQVTISADKSISTAYLQWSSLKASDTAMYYCASSYLRGLWGGYFDYWGQGTLVTVSSGGGGSGGGGSGGGGSGGGGSELQSVLTQPPSASGTPGQRVTISCSGSSSNIGSNYVNWYQQLPGTAPKLLIYGDYQRPSGVPDRFSGSKSGTSASLAISGLRSEDEADYYCATRDDSLSGSVVFGTGTKLTVLTTTPAPRPPTPAPTIASQPLSLRPEACRPAAGGAVHTRGLDFACDIYIWAPLAGTCGVLLLSLVITLYCKRGRKKLLYIFKQPFMRPVQTTQEEDGCSCRFPEEEEGGCELRVKFSRSADAPAYQQGQNQLYNELNLGRREEYDVLDKRRGRDPEMGGKPRRKNPQEGLYNELQKDKMAEAYSEIGMKGERRRGKGHDGLYQGLSTATKDTYDALHMQALPPR | 3.42 | 35.9 | –

More lines, now with the values ahead:

Activation ratio (WT/KO) [1] | Protein binding (%) [2] [%] | Activation ratio (WT/KO) [3] | Binder
2.26 | 70.8 | – | P16C05 CD70-specific CAR (other, Chimeric antigen receptor on transduced Jurkat cells; the signal peptide is left out) EVQLVQSGAEVKKPGESLKISCKGSGYSFTDYWIGWVRQMPGKGLEWMGMISPGGSTTIYRPSFQGQVTISADKSISTAYLQWSSLKASDTAMYYCAREMYTGGYGGSWYFDYWGQGTLVTVSSGGGGSGGGGSGGGGSGGGGSELDIQMTQSPSSLSASVGDRVTITCRASQSIGQSLNWYQQKPGKAPKLLIYGASSLQSGVPSRFSGSGSGTDFTLTISSLQPEDFATYYCQQSYSTPITFGQGTKVEIKTTTPAPRPPTPAPTIASQPLSLRPEACRPAAGGAVHTRGLDFACDIYIWAPLAGTCGVLLLSLVITLYCKRGRKKLLYIFKQPFMRPVQTTQEEDGCSCRFPEEEEGGCELRVKFSRSADAPAYQQGQNQLYNELNLGRREEYDVLDKRRGRDPEMGGKPRRKNPQEGLYNELQKDKMAEAYSEIGMKGERRRGKGHDGLYQGLSTATKDTYDALHMQALPPR
2.6 | 62 | – | P15D02 CD70-specific CAR (other, Chimeric antigen receptor on transduced Jurkat cells; the signal peptide is left out) EVQLVQSGAEVKKPGESLKISCKGSGYSFASYWIGWVRQMPGKGLEWMGVIYPGTSETRYSPSFQGQVTISADKSISTAYLQWSSLKASDTAMYYCAKGLSASASGYSFQYWGQGTLVTVSSGGGGSGGGGSGGGGSGGGGSELDIQMTQSPSSLSASVGDRVTITCRASQSIDTYLNWYQQKPGKAPKLLIYSASSLHSGVPSRFSGSGSGTDFTLTISSLQPEDFATYYCQQSYSTTAWTFGQGTKVEIKTTTPAPRPPTPAPTIASQPLSLRPEACRPAAGGAVHTRGLDFACDIYIWAPLAGTCGVLLLSLVITLYCKRGRKKLLYIFKQPFMRPVQTTQEEDGCSCRFPEEEEGGCELRVKFSRSADAPAYQQGQNQLYNELNLGRREEYDVLDKRRGRDPEMGGKPRRKNPQEGLYNELQKDKMAEAYSEIGMKGERRRGKGHDGLYQGLSTATKDTYDALHMQALPPR
4.32 | 37.5 | – | P13F04 CD70-specific CAR (other, Chimeric antigen receptor on transduced Jurkat cells; the signal peptide is left out) QVQLVQSGAEVKKPGSSVKVSCKASGGTFSSYAISWVRQAPGQGLEWMGEIIPIFGTASYAQKFQGRVTITADESTSTAYMELSSLRSEDTAVYYCARAGWDDSWFDYWGQGTLVTVSSGGGGSGGGGSGGGGSGGGGSELQSVLTQPPSASGTPGQRVTISCSGSNSNIGTNYVSWYQQLPGTAPKLLIYRSSRRPSGVPDRFSGSKSGTSASLAISGLRSEDEADYYCAAWDGSLSGHWVFGTGTKLTVLTTTPAPRPPTPAPTIASQPLSLRPEACRPAAGGAVHTRGLDFACDIYIWAPLAGTCGVLLLSLVITLYCKRGRKKLLYIFKQPFMRPVQTTQEEDGCSCRFPEEEEGGCELRVKFSRSADAPAYQQGQNQLYNELNLGRREEYDVLDKRRGRDPEMGGKPRRKNPQEGLYNELQKDKMAEAYSEIGMKGERRRGKGHDGLYQGLSTATKDTYDALHMQALPPR
– | – | 2.09 | 40E3 CD70-specific CAR (other) QVQLQESGPGLVKPSETLSLTCTVSGGSISSYYWNWIRQPPGKGLEWIGYIYYSGSTNYNPSLKSRVTISVDTSKNQFSLKLRSVTAADTAVYYCARDIRTWGQGTLVTVSSGGGGSGGGGSGGGGSGGGGSDIQMTQSPSSLSASVGDRVTITCRASQGISNYLAWFQQKPGKAPKSLIYAASSLQSGVPSKFSGSGSGTDFTLTISSLQPEDFATYYCQQYNSYPLTFGGGTKVEIKTTTPAPRPPTPAPTIASQPLSLRPEACRPAAGGAVHTRGLDFACDIYIWAPLAGTCGVLLLSLVITLYCKRGRKKLLYIFKQPFMRPVQTTQEEDGCSCRFPEEEEGGCELRVKFSRSADAPAYQQGQNQLYNELNLGRREEYDVLDKRRGRDPEMGGKPRRKNPQEGLYNELQKDKMAEAYSEIGMKGERRRGKGHDGLYQGLSTATKDTYDALHMQALPPR
